Data reported in patent publication US20240262926A1 (published 2024).

T1: recombinant monkey TfR (r monkey TfR: Sino Biological Inc.) (cynomolgus monkey (Macaca fascicularis), UniProt Q5RDH6 89-760 (Pongo abelii entry))
T1 construct: Bought product; also called r monkey TfR-ECD (Histag); cynomolgus monkey TfR; not shown: histidine tag attached to the N-terminus
T1 chain: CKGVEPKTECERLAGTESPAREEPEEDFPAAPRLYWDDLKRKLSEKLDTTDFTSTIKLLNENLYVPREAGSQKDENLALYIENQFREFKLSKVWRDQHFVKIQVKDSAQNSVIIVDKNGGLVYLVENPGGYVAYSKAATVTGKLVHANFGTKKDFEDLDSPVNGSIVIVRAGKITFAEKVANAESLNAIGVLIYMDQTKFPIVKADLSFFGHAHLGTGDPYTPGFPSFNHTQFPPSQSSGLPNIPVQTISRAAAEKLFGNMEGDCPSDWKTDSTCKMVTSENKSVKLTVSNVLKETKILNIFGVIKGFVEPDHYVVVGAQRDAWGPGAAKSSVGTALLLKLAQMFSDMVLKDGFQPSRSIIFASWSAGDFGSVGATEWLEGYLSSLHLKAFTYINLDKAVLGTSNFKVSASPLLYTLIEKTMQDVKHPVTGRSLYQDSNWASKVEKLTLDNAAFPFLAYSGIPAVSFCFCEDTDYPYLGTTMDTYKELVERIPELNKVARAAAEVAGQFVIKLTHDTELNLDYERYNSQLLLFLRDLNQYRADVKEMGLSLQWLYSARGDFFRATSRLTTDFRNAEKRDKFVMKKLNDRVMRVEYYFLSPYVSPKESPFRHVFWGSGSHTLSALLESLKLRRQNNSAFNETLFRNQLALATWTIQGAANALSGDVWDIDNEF


What was measured:
[1] = molecular target: T2, recombinant human TfR (r human TfR: Sino Biological Inc.) (human, UniProt P02786 89-760); test: BLI (Octet RED96), method of Example 7, His-tagged TfR ECD on Ni-NTA sensor
T2 construct: Bought product; also called r human TfR-ECD (Histag); hTfR; not shown: histidine tag attached to the N-terminus
Protocol: (§1) Each of the antibodies (anti-hTfR antibody Nos. 1 to 14) purified above was subjected to 2-fold dilution steps with HBS-P+(10 mM HEPES containing 150 mM NaCl, 50 μM EDTA and 0.05% Surfactant P20) to prepare antibody solutions of 7 different concentrations, 0.78125 to 50 nM (0.117 to 7.5 μg/mL). These antibody solutions were used as the sample solutions. The r human and r monkey TfRs were respectively diluted with HBS-P+ to prepare 25 μg/mL solutions, which were used as r human TfR-ECD (Histag) solution and r monkey TfR-ECD (Histag) solution, respectively.
(§2) Each of the sample solutions prepared above by 2-fold dilution steps was added, 200 μL/well, to a 96-well plate, black (Greiner Bio-One Inc.). Each of the r human TfR-ECD (Histag) solution and the r monkey TfR-ECD (Histag) solutions prepared above was added, 200 μL/well, to predetermined wells. To respective wells for baseline, dissociation and washing were added HBS-P+, 200 μL/well. To wells for regeneration were added 10 mM Glycine-HCl, pH 1.7, 200 μL/well. To wells for activation was added 0.5 mM NiCl₂ solution, 200 μL/well. The plate and biosensor (Biosensor/Ni-NTA: ForteBio Inc., a division of Pall Corporation) were set in the prescribed positions of Octet RED96. […] The measurement was performed at 25 to 30° C.
(§3) The affinity of the humanized anti-hTfR antibodies obtained in Example 13 to human and monkey TfRs was measured by the method described in Example 7.

[2] = molecular target: T1, recombinant monkey TfR (r monkey TfR: …); test: as above
Protocol: as §1, §2, §3

[3] = molecular target: T2, recombinant human TfR (r human TfR: …); test: BLI (Octet RED96), His-tagged TfR ECD loaded on Ni-NTA sensor, antibody as analyte
Protocol: (§4) By measuring the variations of this shift between the interfering waves, determination of the number of the molecules bound to the layer of the biomolecules immobilized to the sensor tip surface and kinetic analysis of it can be performed in real time. The measurement was performed according generally to the operating manual attached to Octet RED96. As a human TfR, a recombinant human TfR (r human TfR: Sino Biological Inc.) was used, which had the amino acid sequence of the hTfR extracellular region, i.e., the cysteine residue at the position 89th from the N-terminal side to the phenylalanine at the C-terminus, of the amino acid sequence set forth as SEQ ID NO:1, with a histidine tag attached to the N-terminus. As a monkey TfR, a recombinant monkey TfR (r monkey TfR: Sino Biological Inc.) was used, which had the amino acid sequence of the cynomolgus monkey TfR extracellular region, i.e., the cysteine residue at the position 89th from the N-terminal side to the phenylalanine at the C-terminus, of the amino acid sequence set forth as SEQ ID NO:2, with a histidine tag attached to the N-terminus.
as §1
(§5) Each of the sample solutions prepared above by 2-fold dilution steps was added, 200 μL/well, to a 96-well plate, black (Greiner Bio-One Inc.). Each of the r human TfR-ECD (Histag) solution and the r monkey TfR-ECD (Histag) solutions prepared above was added, 200 μL/well, to predetermined wells. To respective wells for baseline, dissociation and washing were added HBS-P+, 200 μL/well. To wells for regeneration were added 10 mM Glycine-HCl, pH 1.7, 200 μL/well. To wells for activation was added 0.5 mM NiCl₂ solution, 200 μL/well. The plate and biosensor (Biosensor/Ni-NTA: ForteBio Inc., a division of Pall Corporation) were set in the prescribed positions of Octet RED96.

[4] = molecular target: T1, recombinant monkey TfR (r monkey TfR: …); test: as above
Protocol: as §4, §1, §5

Binder	Kd [1] [nM]	koff [1] [s⁻¹]	kon [1] [M⁻¹ s⁻¹]	Kd [2] [nM]	koff [2] [s⁻¹]	kon [2] [M⁻¹ s⁻¹]	Kd [3] [nM]	koff [3] [s⁻¹]	kon [3] [M⁻¹ s⁻¹]	Kd [4] [nM]	koff [4] [s⁻¹]	kon [4] [M⁻¹ s⁻¹]
humanized anti-hTfR antibody No. 3-2 (antibody, human IgG1, kappa, IgG1) heavy: not shown light: DIVMTQSPLSLPVTPGEPASISCRSSQSLVHSNGNTYLHWYLQKPGQSPQLLIYKVSNRFSGVPDRFSGSGSGTDFTLKISRVEAEDVGVYYCSQSTHVPWTFGQGTKVEIKRTVAAPSVFIFPPSDEQLKSGTASVVCLLNNFYPREAKVQWKVDNALQSGNSQESVTEQDSKDSTYSLSSTLTLSKADYEKHKVYACEVTHQGLSSPVTKSFNRGEC	0.0239	1.45e-05	606000	1.77	0.000876	495000	–	–	–	–	–	–
humanized anti-hTfR antibody No. 3-3 (antibody, human IgG1, kappa, IgG1) heavy: not shown light: DIVMTQTPLSLPVTPGEPASISCRSSQSLVHSNGNTYLHWYLQKPGQSPQLLIYKVSNRFSGVPDRFSGSGSGTDFTLKISRVEAEDVGVYYCSQSTHVPWTFGQGTRLEIKRTVAAPSVFIFPPSDEQLKSGTASVVCLLNNFYPREAKVQWKVDNALQSGNSQESVTEQDSKDSTYSLSSTLTLSKADYEKHKVYACEVTHQGLSSPVTKSFNRGEC	0.0209	1.25e-05	600000	1.91	0.000932	488000	–	–	–	–	–	–
humanized anti-hTfR antibody No. 3-4 (antibody, human IgG1, kappa, V domains shown, IgG1) VH: EVQLVQSGAEVKKPGESLKISCKGSGYSFTNYWLGWVRQMPGKGLEWMGDIYPGGDYPTYSEKFKVQVTISADKSISTAYLQWSSLKASDTAMYYCARSGNYDEVAYWGQGTLVTVSS VL: DIVMTQTPLSLSVTPGQPASISCRSSQSLVHSNGNTYLHWYLQKPGQSPQLLIYKVSNRFSGVPDRFSGSGSGTDFTLKISRVEAEDVGVFFCSQSTHVPWTFGQGTKVEIKR	< 0.001	< 1e-07	1.01e+06	0.26	0.000135	519000	–	–	–	–	–	–
anti-hTfR antibody No. 8 (antibody, V domains shown, Mouse hybridoma antibody purified on Protein G; also called mouse anti-hTfR antibody No. 8; product of Clone 8 line) VH: EVQLQESGPGLVAPSQSLSITCTVSGFSLTTYGVSWIRQPPGKGLEWLGIIWGDGSTNYRSALISRLSISKDNSKNQVFLKLNSLQTDDTATYYCAKPDDYWGQGTSVTVSS VL: DIVLTQSPAIMSASLGEEITLTCSASSSVSYMHWYQQKSGTSPKVLIYGTSNLASEVPSRFSGSGSGTFYSLTISSVEAEDAADYYCHQWSSYPWTFGGGTKLEIK	–	–	–	–	–	–	< 0.001	< 1e-07	696000	9.18	0.00507	552000
anti-hTfR antibody No. 10 (antibody, V domains shown, Mouse hybridoma antibody purified on Protein G; also called mouse anti-hTfR antibody No. 10; product of Clone 10 line) VH: EVQLQESGGGLVKPGGSLKLSCEASGITFRNYAMSWVRQTPEKRLEWVATISSYGGYTYYADSVKGRFTVSRDNAGNTLYLQMSSLRSEDTAMYHCARQEVPYPYPMDNWGQGTSVIVSS VL: DIVMTQTPSSLSASLGERVSLTCRPSQEISGYLSWLQQKPDGTIKRLIYAASTLDSGVPKRFSGSRSGSDYSLTISSLESEDFADYYCLQYASYPRTFGGGTKLEIK	–	–	–	–	–	–	1.13	0.000766	679000	31.6	0.0122	387000
anti-hTfR antibody No. 11 (antibody, V domains shown, Mouse hybridoma antibody purified on Protein G; also called mouse anti-hTfR antibody No. 11; product of Clone 11 line) VH: EVQLQESGAELVRPGSSVKISCKASGYAFSIYWINWLKQRPGQGLEWIGQIYPGNGDTNYNGKFKGKATLTADKSSNTVYMRLSSLTSEDSAVYFCGRWGDDYAMDFWGQGTSVTVSS VL: DIVLTQSPATLSVTPGDRVSLSCRASQSIRNYLHWYQQKSHESPRLLIKYASQSISGIPSRFSGSGSGTDFTLSINSVETEDFGMYFCQQTNSWPYTFGGGTKLEIK	–	–	–	–	–	–	0.0837	2.28e-05	272000	3.38	0.000421	124000
anti-hTfR antibody No. 13 (antibody, V domains shown, Mouse hybridoma antibody purified on Protein G; also called mouse anti-hTfR antibody No. 13; product of Clone 13 line) VH: EVQLQESGAELVRPGSSVKISCKASGYAFSIYWINWLKQRPGQGLEWIGQIYPGNGDTNYNGKFKGKATLTADKSSNTVYMRLSSLTSEDSAVYFCGRWGDDYAMDFWGQGTSVTVSS VL: DIVITQTPATLSVTPGDRVSLSCRASQSIRNYLHWYQQKSHESPRLLIKYASQSISGIPSRFSGSGSGTDFTLTINSVETEDFGMYFCQQTNSWPYTFGGGTKLEIK	–	–	–	–	–	–	< 0.001	< 1e-07	835000	0.123	7.29e-05	591000
anti-hTfR antibody No. 12 (antibody, V domains shown, Mouse hybridoma antibody purified on Protein G; also called mouse anti-hTfR antibody No. 12; product of Clone 12 line) VH: EVQLQESGAELARPGTSVKVSCKAAGYVFINYLIEWVKQRPGQGLEWIGVIHSGSGGTNYNDNFKDKATLTRDVSSSTAYMQLSSLTSDDSAVYFCARRNFGNYYFDYWGQGTTLTVSS VL: DIVLTQSHKFMSTVIGDRVSITCKASHDVKTAVAWYQQTPGQSPKLLTYWSSTRHTGVPDRFTGSGSGTDYTLTISSVQAEDLALYYCQQHFSTPLTFGAGTKLELK	–	–	–	–	–	–	0.432	0.000723	754000	0.249	0.000126	505000
anti-hTfR antibody No. 14 (antibody, V domains shown, Mouse hybridoma antibody purified on Protein G; also called mouse anti-hTfR antibody No. 14; product of Clone 14 line) VH: EVQLQESGPELLKPGASVKMSCKASGYAFTGYVIHWVKQKPGQGLEWIGFLNPHKDDSEYNEKFRGKATLTSDKSSSTAYMDLSSLTSEDSAVYYCARGYYYYSMDYWGQGTSVTVSS VL: DIVLTQTPVIMSAYPGEKVTLTCSASSNINSIHWYQQKPGTSPKRWIYDTSNLASGVPARFSGSGSGTSYSLTISSMEAEDAASYYCHQRSGYPFTFGSGTKLEIK	–	–	–	–	–	–	< 0.001	< 1e-07	961000	0.0516	3.61e-05	700000
anti-hTfR antibody No. 3 (antibody, V domains shown, Mouse hybridoma antibody purified on Protein G; also called mouse anti-hTfR antibody No. 3; product of Clone 3 line) VH: EVQLQESGAELVRPGTSVKISCKASGYTFMNYWLGWVKQRPGHGLEWIGDIYPGGDYPTYSEKFKVKAILTADTSSSSVYLHLSSLTSEDSAVYFCARSGNYDEVAYWGQGTLVTVST VL: DIVMTQTTLSLPVSLGDQASISCRSSQSLVHSNGNTYLHWYLQKPGQSPKLLIYKVSNRFSGVPDRFSGSGSGTDFTLKISRVEAEDLGVFFCSQSTHVPWTFGGGTKLEIKR	–	–	–	–	–	–	< 0.001	< 1e-07	653000	< 0.001	< 1e-07	389000
